How the values were obtained:
[1] = tested on: bak−/− bax−/− HCT116 cells; assay: Apoptosis initiated by actinomycin D and TRAIL + CHX in cells constitutively expressing BAK; assay type: cell-based, human; details: constitutive pMX-BAK-IRES-GFP
From the text: We enriched for GFP positive cell populations by up to four rounds of sorting. Cells were used in apoptosis assays. […]
and doxycycline (Dox)-inducible mC-BAK. d, Representative i mmunoblot for BID and sypro red staining of BCL2allKO HCT116 cells expressing V74A and D83A mC-BAK and BID from n=2 independent experiments. e, Representative immunoblot of bak-/- bax- […]
from n=2 independent experiments . GFP positive cells were sorted three and four times to achieve similar expression levels. […]
human TRAIL and cycloheximide (CHX).
Data are presented as mean + SD for one representative of n=2 experiments each of n=3 technical replicates. g, Experimental […]
BAK (mC-BAK) monitored for 48 hr by IncuCyte imaging uptake of cell-impermeable dye SYTOX Green. AUC for kinetic traces is included. At 48 hr, we quantified percentage of SYTOX Green +ve cells (%) by fluorescence activated cell sorting (FACS). Data are presented as mean + SD from one of n=3 experiments each of n=3

[2] = Liposome permeabilization by WT and mutant BAK proteins (autoactivation, or direct activation by BID BH3); assay type: biochemical; details: absence of BID BH3
Protocol: Human BAK-∆TM-His6 (BAK)[26] spontaneously permeabilizes liposomes above a certain dose (>100 nM, Fig. 1a). In these dye-release assays[43]–[46], BAK is recruited via His-tag to liposomes containing 2.5 µM of the lipid 1,2-dioleoyl-sn-glycero-3-[(N-(5-amino-1-carboxypentyl)iminodiacetic acid)succinyl] (nickel salt), DGS-NTA(Ni).
To probe autoactivation with full-length BAK, we mutated hydrophobic residues at positions (0)−(6) of the BH3 to alanine or arginine, and D83, which forms the conserved salt bridge (s) with R127, to alanine (Fig. 2a). The BH3 residues participate in autoactivation from the ligand side [hydrophobic positions (0)–(5) and D83(s)] and also from the receptor groove side [hydrophobic positions (3)–(5)] (Fig. 2a). Thus, substitutions at positions (3)–(5) should affect receptor and ligand activities and are predicted to impact BAK activation more severely than mutations of positions (0)–(2), which affect only ligand activity. […] In contrast, almost all (2)–(5) and (s) missense mutants were considerably impaired in autoactivation (Fig. 2b and Supplementary Fig. 3a). […] Despite impairment in autoactivation, all missense mutants were directly activated by BID BH3 peptide, although they induced lower level of permeabilization compared to WT BAK (Fig. 2b and Supplementary Fig. 3a).
We performed liposome permeabilization assays as previously described[43]–[46]. […] (nickel salt) [DGS NTA(Ni), 2.5 μM final concentration in each assay] (Avanti Polar Lipids). We prepared 12.5 mM fluorophore; 8-aminonaphthalene-1, 3, 6-trisulfonic acid, disodium salt (ANTS) and 45 mM quencher; p-xylene-bis-pyridiniumbromide (DPX) in LUV buffer (10 mM HEPES pH 6.8, 200 mM KCl and 5 mM MgCl2). We mixed the lipid film in ANTS/DPX solution by vortexing and sonication (~15 min) followed by extrusion through polycarbonate membrane of 2 μm pore size (Avanti Polar lipids) to generate homogenous large unilamellar vesicles (LUVs). We separated LUVs from free ANTS/DPX by S500 size exclusion chromatography and stored them at 4 °C in the dark. We prepared peptide and protein dilutions in 96-well black flat bottom plates (Costar) kept on ice. ANTS release from permeabilized liposomes causes an increase in fluorescence, which we monitored at 37 °C for 90 min using a CLARIOSTAR microplate reader (BMG Labtech) set at excitation and emission wavelengths of 360 and 530 nm, respectively. We normalized the data relative to maximum and minimum fluorescence induced by 3% CHAPS and buffer controls, respectively. We quantified liposome permabilization by integrating area under curve (AUC) of normalized traces based on the Simpson’s equation, and analyzed that data in Excel and GraphPad Prism. AUC measurements reflect the kinetic and extent of liposome permeabilization and provide quantitative means for comparison between different experimental conditions (e.g., BAK mutants with gross or partial variation in activity). Variability in permeabilization of different liposomes is common and our analyses compare among conditions investigated with the same liposomes. Although the absolute permeabilization values may differ, the trends for the same conditions are always very similar between different liposomes.

B1: V74A (1): BAK missense mutant, WT-like; in cells as mCherry fusion (protein)
chain: MASGQGPGPPRQECGEPALPSASEEQVAQDTEEVFRSYVFYRHQQEQEAEGVAAPADPEMVTLPLQPSSTMGQAGRQLAIIGDDINRRYDSEFQTMLQHLQPTAENAYEYFTKIATSLFESGINWGRVVALLGFGYRLALHVYQHGLTGFLGQVTRFVVDFMLHHCIARWIAQRGGWVAALNLGNG
modifications: left off: His6, C-terminal, kept
notes: BAK missense mutant, WT-like; in cells as mCherry fusion
- response to apoptotic inducers actinomycin D and TRAIL + CHX [1]: respond similarly
- autoactivation in liposome permeabilization assays [2]: behave similar to WT BAK

Source: article PMC8752837, “Structural basis of BAK activation in mitochondrial apoptosis initiation” (Nature Communications, 2022)
